In patent US20240043540A1 (Innovent, published 2024):

T1: recombinant cynomolgus monkey B7H3 protein (cynomolgus monkey, UniProt Q7TPB4 26-248 (rat entry))
T1 construct: also called SINO BIOLOGICAL Catalog No. 90806-C02H-50
T1 chain: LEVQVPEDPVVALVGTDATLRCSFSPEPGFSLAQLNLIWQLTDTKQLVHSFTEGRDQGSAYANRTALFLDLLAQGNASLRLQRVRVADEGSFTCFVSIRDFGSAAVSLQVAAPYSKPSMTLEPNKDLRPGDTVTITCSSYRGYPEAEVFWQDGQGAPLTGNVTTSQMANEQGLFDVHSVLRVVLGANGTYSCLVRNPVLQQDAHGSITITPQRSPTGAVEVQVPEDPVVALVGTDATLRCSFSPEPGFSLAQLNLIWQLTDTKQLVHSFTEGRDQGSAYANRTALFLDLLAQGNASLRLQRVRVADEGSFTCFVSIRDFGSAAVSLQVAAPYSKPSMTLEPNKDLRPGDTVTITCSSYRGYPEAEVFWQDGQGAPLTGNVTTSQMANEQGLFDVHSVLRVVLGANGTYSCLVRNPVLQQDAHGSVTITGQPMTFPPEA

T2: recombinant human 4Ig-B7H3 protein (human, UniProt Q5ZPR3 29-461)
T2 construct: also called human B7H3 protein; SINO BIOLOGICAL Catalog No. 11188-H08H
T2 sequence: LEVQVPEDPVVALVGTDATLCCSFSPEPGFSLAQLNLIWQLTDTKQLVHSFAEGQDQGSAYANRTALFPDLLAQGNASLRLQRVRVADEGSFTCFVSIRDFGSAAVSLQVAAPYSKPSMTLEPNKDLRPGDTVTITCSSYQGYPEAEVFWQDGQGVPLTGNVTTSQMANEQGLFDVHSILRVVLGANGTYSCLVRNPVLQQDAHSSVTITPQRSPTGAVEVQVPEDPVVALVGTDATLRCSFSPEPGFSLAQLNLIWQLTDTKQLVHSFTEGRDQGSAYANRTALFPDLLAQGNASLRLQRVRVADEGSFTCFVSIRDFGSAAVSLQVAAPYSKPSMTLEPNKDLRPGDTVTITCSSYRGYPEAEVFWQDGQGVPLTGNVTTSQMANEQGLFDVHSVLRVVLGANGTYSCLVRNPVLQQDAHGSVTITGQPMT

T3: recombinant human 2Ig-B7H3 protein (human, UniProt Q5ZPR3 29-466)
T3 construct: Bought soluble recombinant protein; also called ACRO Catalog No. B73-H52E2
T3 sequence: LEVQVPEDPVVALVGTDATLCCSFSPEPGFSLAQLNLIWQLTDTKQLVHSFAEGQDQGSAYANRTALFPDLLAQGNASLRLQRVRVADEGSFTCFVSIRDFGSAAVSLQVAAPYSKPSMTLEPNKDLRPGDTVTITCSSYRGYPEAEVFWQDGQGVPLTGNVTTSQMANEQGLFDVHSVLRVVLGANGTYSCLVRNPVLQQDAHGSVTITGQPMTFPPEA

T4: human 2Ig-B7H3 overexpressed on CHO-S cells (CHOS-hB7H3-2Ig) (human, UniProt Q5ZPR3 29-534)
T4 construct: also called cells overexpressing human 2Ig-B7H3
T4 sequence: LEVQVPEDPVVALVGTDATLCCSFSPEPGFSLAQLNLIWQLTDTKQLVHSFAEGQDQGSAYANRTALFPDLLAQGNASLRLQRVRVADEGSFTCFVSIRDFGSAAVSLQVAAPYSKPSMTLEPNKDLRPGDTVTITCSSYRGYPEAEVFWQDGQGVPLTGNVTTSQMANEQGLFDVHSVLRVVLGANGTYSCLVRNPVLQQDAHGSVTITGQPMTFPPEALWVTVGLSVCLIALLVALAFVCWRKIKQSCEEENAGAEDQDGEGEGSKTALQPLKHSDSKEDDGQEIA

T5: human 4Ig-B7H3 overexpressed on CHO-S cells (CHOS-hB7H3-4Ig) (human, UniProt Q5ZPR3 29-534)
T5 construct: The entry includes the signal peptide; also called CHO-hB7H3-4Ig; cells overexpressing human 4Ig-B7H3
T5 sequence: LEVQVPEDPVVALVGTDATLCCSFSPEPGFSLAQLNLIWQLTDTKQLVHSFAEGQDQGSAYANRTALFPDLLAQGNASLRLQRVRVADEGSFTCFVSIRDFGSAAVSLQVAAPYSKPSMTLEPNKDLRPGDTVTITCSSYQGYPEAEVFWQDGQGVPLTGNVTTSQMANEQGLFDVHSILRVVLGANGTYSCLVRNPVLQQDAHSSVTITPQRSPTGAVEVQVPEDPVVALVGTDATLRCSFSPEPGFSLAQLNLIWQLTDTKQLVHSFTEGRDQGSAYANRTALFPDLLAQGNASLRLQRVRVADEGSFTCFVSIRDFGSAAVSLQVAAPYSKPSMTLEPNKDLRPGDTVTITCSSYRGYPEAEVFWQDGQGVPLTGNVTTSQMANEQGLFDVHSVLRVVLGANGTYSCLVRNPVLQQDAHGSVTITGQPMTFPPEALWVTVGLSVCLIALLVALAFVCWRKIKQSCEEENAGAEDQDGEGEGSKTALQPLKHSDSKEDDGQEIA

T6: cynomolgus monkey B7H3 expressed on CHO cells (CHO-cynoB7H3) (cynomolgus monkey, UniProt Q7TPB4 26-316 (rat entry))
T6 chain: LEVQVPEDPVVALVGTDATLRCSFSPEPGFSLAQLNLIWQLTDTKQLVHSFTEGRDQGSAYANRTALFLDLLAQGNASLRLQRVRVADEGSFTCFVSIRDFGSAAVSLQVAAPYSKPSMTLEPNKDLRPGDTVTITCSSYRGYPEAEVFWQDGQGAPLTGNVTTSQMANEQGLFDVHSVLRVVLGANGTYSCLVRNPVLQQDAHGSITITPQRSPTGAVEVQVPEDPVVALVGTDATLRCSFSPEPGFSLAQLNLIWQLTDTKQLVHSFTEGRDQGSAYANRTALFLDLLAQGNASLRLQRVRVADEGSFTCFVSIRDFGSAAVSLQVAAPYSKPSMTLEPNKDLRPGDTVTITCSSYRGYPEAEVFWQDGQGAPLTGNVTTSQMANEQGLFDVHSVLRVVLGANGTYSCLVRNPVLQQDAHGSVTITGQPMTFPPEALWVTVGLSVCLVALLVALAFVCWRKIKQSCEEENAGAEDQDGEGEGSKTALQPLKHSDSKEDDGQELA


What was measured:
[1] = target: T1, recombinant cynomolgus monkey B7H3 …; assay: bio-layer interferometry (ForteBio), as in Example 3
Method: (§1) Briefly, AMQ (Pall, 1506091) (for sample detection) or AHQ (Pall, 1502051) (for positive control detection) sensors were equilibrated offline in an assay buffer for 30 min, and were equilibrated online for 60 s to establish a baseline. The purified antibodies obtained as described above were loaded online onto an AHQ sensor (ForteBio) for the ForteBio affinity assay. The sensor with the loaded antibodies was then exposed to the antigens (including human 4Ig-B7H3, human 2Ig-B7H3 (ACRO, Catalog No. B73-H52E2) and cynomolgus monkey B7H3 (SINO BIOLOGICAL, Catalog No. 90806-C02H-50)) before transferring the sensor to the assay buffer for dissociation rate measurement. The KD values were analyzed using ForteBio analysis software.
(§2) The binding affinity of the humanized antibodies obtained in Example 4 for the antigens (human B7H3 and cynomolgus monkey B7H3) was determined by ForteBio assay as described in Example 3, which was expressed as an equilibrium dissociation constant (KD).

[2] = target: T2, recombinant human 4Ig-B7H3 protein; assay: as above
Method: as §1, §2

[3] = target: T3, recombinant human 2Ig-B7H3 protein; assay: as above
Method: as §1, §2

[4] = target: T4, human 2Ig-B7H3 overexpressed on CHO-S …; assay: FACS (flow cytometry, MFI) on CHO-S cells overexpressing human 2Ig-B7H3, PE-conjugated anti-human Fc detection; panel 'Cell-level affinity of CHOS hB7H3(2Ig)'
Method: (§3) 1) CHOS-hB7H3-4Ig, CHOS-hB7H3-2Ig, and CHOS-cyno B7H3 cells were diluted with a PBS solution to 2×10⁶ cells/mL, and added to a U-bottom 96-well plate at 100 μL/well. Three-fold serially diluted antibodies were added.
(§4) 2) The above mixture was incubated on ice for 30 min. The cell suspension was centrifuged at 400 g for 5 min to remove the supernatant, and the cells were washed with a PBS solution to remove the unbound antibodies. 100 μL of the solution of PE-conjugated anti-human Fc antibody (SouthernBiotech) diluted at a ratio of 1:200 was added to each well, and the cells were incubated in the dark on ice for 30 min. Then the cell suspension was centrifuged at 400 g for 5 min to remove the supernatant. The cells were washed with PBS twice to remove the unbound PE-conjugated anti-human Fc antibody. Then the cells were resuspended with 100 μL of PBS, and the binding of the antibody to cells was assayed by FACS.

[5] = target: T5, human 4Ig-B7H3 overexpressed on CHO-S …; assay: FACS (flow cytometry, MFI) on CHO-S cells overexpressing human 4Ig-B7H3, PE-conjugated anti-human Fc detection; panel 'Cell-level affinity of CHOS hB7H3(4Ig)'
Method: as §3, §4

[6] = target: T1, recombinant cynomolgus monkey B7H3 …; assay: bio-layer interferometry (ForteBio), antibody loaded on sensor, antigen in solution
Method: (§5) The equilibrium dissociation constant (KD) for binding of the antibodies of the present invention to human B7H3 was determined by bio-layer interferometry (ForteBio). The ForteBio affinity assay was conducted according to the method (Estep, P et al., High throughput solution Based measurement of antibody-antigen affinity and epitope binding. mAbs, 2013.5(2): 270-8) known in the art.
as §1

[7] = target: T2, recombinant human 4Ig-B7H3 protein; assay: as above
Method: as §5, §1

[8] = target: T3, recombinant human 2Ig-B7H3 protein; assay: as above
Method: as §5, §1

[9] = target: T6, cynomolgus monkey B7H3 expressed on CHO …; assay: flow cytometry, hybridoma supernatant on CHO-cynoB7H3 cells
[10] = target: T1, recombinant cynomolgus monkey B7H3 …; assay: bio-layer interferometry (ForteBio), hybridoma antibody
[11] = target: T2, recombinant human 4Ig-B7H3 protein; assay: as above

| Binder | Kd [1] [nM] | Kd [2] [nM] | Kd [3] [nM] | EC50 [4] [nM] | EC50 [5] [nM] | Kd [6] [nM] | Kd [7] [nM] | Kd [8] [nM] | binding result [9] | Kd [10] [nM] | Kd [11] [nM] |
| --- | --- | --- | --- | --- | --- | --- | --- | --- | --- | --- | --- |
| Hz19A2 humanized antibody (antibody, human IgG1, kappa, V domains shown) VH: QVQLVQSGAEVKKPGASVKVSCKASGYIFTSYWIHWVRQAPGQGLEWMGRIYPGTESTFYNEKFKGRVTMTRDTSTSTVYMELSSLRSEDTAVYYCHFITASDWYFDVWGQGTLVTVSS VL: EIVLTQSPATLSLSPGERATLSCSVSSSVQSNYLYWYQQKPGQAPRLLIYGTSNLASGIPARFSGSGSGTDFTLTISSLEPEDFAVYYCYQWSSYPFTFGQGTKLEIKR | 0.968 | 0.601 | 10.4 | 138 | 8.51 |  |  |  |  |  |  |
| Ch20G5 chimeric antibody (antibody, human IgG1, kappa, V domains shown) VH: EVQLQQSVPELVKPGASVKISCKTSGYTFTEYIMHWVKQSHGKNLEWIGGINPNNGGTTYNQKFKDKATLTVDKSSSTAYMELHNLTSEDSAVYYCTRRTPPWHFAVWGAGTSLTVSS VL: DIVLTQSPTIMSASPGEKVTMTCSASSSVSYIHWYQQKSGTSPKRWIFDTSRLASGVPARFSGSGSGTSYSLTISSMEAEDAATYYCQQWSSAPLTFGTGTTLELKR |  |  |  |  |  | 0.713 | 0.236 | 3.18 |  |  |  |
| Ch19A2 chimeric antibody (antibody, human IgG1, kappa, V domains shown) VH: EVQLQQSGAELVRPGASVKLSCKTSGYIFTSYWIHWIKQRSGQGLEWIARIYPGTDSTFYNEKFKGRATLTADKSSSTVYLQLNSLKSEDSAVYFCHFITASDWYFDVWGAGTTVTVSS VL: DIVLTQSPAIMSASPGEKVTLTCSVSSSVNSNYLYWYQQKPGSSPKLWIYGTSNLASGVPARFSGSGSGPSYSLTISSMEAEDAASYFCYQWSSYPFTFGSGTKLEIKR |  |  |  |  |  | 0.59 | 0.362 | 5.74 |  |  |  |
| 19A2 (hybridoma clone antibody) (antibody, V domains shown) VH: EVQLQQSGAELVRPGASVKLSCKTSGYIFTSYWIHWIKQRSGQGLEWIARIYPGTDSTFYNEKFKGRATLTADKSSSTVYLQLNSLKSEDSAVYFCHFITASDWYFDVWGAGTTVTVSS VL: DIVLTQSPAIMSASPGEKVTLTCSVSSSVNSNYLYWYQQKPGSSPKLWIYGTSNLASGVPARFSGSGSGPSYSLTISSMEAEDAASYFCYQWSSYPFTFGSGTKLEIK |  |  |  |  |  |  |  |  | binds | 0.977 | 0.987 |
| MGA271 (positive control antibody) (antibody, V domains shown, also called Enoblituzumab) VH: EVQLVESGGGLVQPGGSLRLSCAASGFTFSSFGMHWVRQAPGKGLEWVAYISSDSSAIYYADTVKGRFTISRDNAKNSLYLQMNSLRDEDTAVYYCGRGRENIYYGSRLDYWGQGTTVTVSS VL: DIQLTQSPSFLSASVGDRVTITCKASQNVDTNVAWYQQKPGKAPKALIYSASYRYSGVPSRFSGSGSGTDFTLTISSLQPEDFATYYCQQYNNYPFTFGQGTKLEIK | 1.87 | 0.939 | 782 | 100 | 8.54 | 1.66 | 0.636 | 187 |  |  |  |
| Hz20G5 humanized antibody (antibody, human IgG1, kappa, V domains shown) VH: QVQLVQSGAEVKKPGASVKVSCKASGYTFTEYIMHWVRQAPGQRLEWMGGINPGTGGTTYNQKFKDRVTITVDTSASTAYMELSSLRSEDTAVYYCTRRTPPWHFAVWGQGTLVTVSS VL: DIQLTQSPSFLSASVGDRVTITCSASSSVSYIHWYQQKPGKAPKRWIYDTSRLASGVPSRFSGSGSGTEFTLTISSLQPEDFATYYCQQWSSAPLTFGGGTKVEIKR |  | 0.371 | 6.3 | 7.54 | 6.28 |  |  |  |  |  |  |
